Data taken from patent US10383338B2, “Compositions and methods for making and using hydrolytic enzymes for degrading polysaccharides made by foodborne pathogenic bacteria” (University of Wyoming, priority 2014, dated 2019).
Where two headings read alike, the source gives them in different places.

Experiments:
L. monocytogenes = format: cell-based; conditions: 1600 ppm, 10 min, room temperature; for killing of wild-type strain EGD-e: HTM-grown culture
Protocol: Here, the role of L. monocytogenes EPS in providing tolerance to disinfection and desiccation was evaluated. […] To distinguish between the contribution of EPS versus EPS-independent c-di-GMP-responsive agents, included in the tests were the ΔpdeB/C/D ΔpssC mutant characterized by elevated intracellular c-di-GMP levels but defective in EPS production.
Cultures were grown in HTM with 3% glucose at 37° C. for 24 h, at which point small uniform clumps are formed by the ΔpdeB/C/D strain. Aliquots (250 μl; 10^8 cfu/ml) of these cultures were mixed with disinfectants at 1:1 vol ratios in small glass tubes that also contained 0.1 g of acid washed glass beads (Sigma Life Sciences). Following a 10-min exposure to disinfectants at room temperature, D/E neutralizing broth (500 μl; Difco) was added. Samples were vigorously vortexed (for 5 min) and clumps of the ΔpdeB/C/D strain were dispersed due to the action of the glass beads. Serial dilutions were plated on BHI agar and colonies were counted following a 48-h incubation at 37° C.

[1] = system: wild-type L. monocytogenes EGD-e; assay: Disinfection tolerance, wild-type strain; format: cell-based, Listeria monocytogenes; conditions: sodium hypochlorite 1600 ppm, 10 min, room temperature; HTM-grown cultures
Protocol: FIGS. 6A-6D: Role of the c-di-GMP-induced EPS in biofilm formation, cell aggregation, and tolerance of L. monocytogenes to disinfectants and desiccation. […] Cultures were grown for 6 days at 30° C. in LB (top panel) or LB supplemented with 3% glycerol (bottom panel). Shown are average results from two biological replicates, where each strain was grown in six wells in a replicate (i.e., six technical replicates). Black circle, wild type; red square, ΔpdeB/C/D; green triangle, ΔpdeB/C/D ΔpssC; blue cross, ΔpdeB/C/D ΔpssE. […] Overnight cultures grown in BHI were inoculated into HTM liquid medium at A600 of 0.01 and incubated at 30° C. with gentle shaking (rotary shaker, 125 rpm) for 48 h. 1, ΔpdeB/C/D; 2, wild type; 3, ΔpdeB/C/D ΔpssC; 4, ΔpdeB/C/D ΔpssE. […] Aliquots of the HTM-grown cultures were mixed with disinfectant solutions for 10 min at room temperature. […]
EPS is known to protect bacteria from environmental insults. Here, the role of L. monocytogenes EPS in providing tolerance to disinfection and desiccation was evaluated. […]
Solutions of sodium hypochlorite, hydrogen peroxide, and benzalkonium chloride (Sigma-Aldrich and Sigma Life Sciences) were prepared in sterile phosphate-buffered saline with disinfection concentrations of 1600 ppm, 200 mM, and 100 ppm, respectively. […] Serial dilutions were plated on BHI agar and colonies were counted following a 48-h incubation at 37° C.

ΔpdeB/C/D strain = assay: Cell aggregation assay with added recombinant protein (prevention of aggregation of the growing strain); format: cell-based, L. monocytogenes; conditions: added to inoculum, HTM/G, 30° C., 24 h
[2] = system: washed aggregates of strain ΔpdeB/C/D; assay: Dispersal of preformed cell aggregates; format: cell-based, L. monocytogenes
[3] = Release of soluble carbohydrates from purified insoluble EPS (anthrone assay); format: biochemical, L. monocytogenes; conditions: 32 μg ml^−1 final concentration; ethanol precipitated EPS
Protocol: Next, purified insoluble ManNAc-Gal EPS was treated with PssZ and PssZ E72Q.
Total carbohydrates were determined using an anthrone assay. Dried EPS samples were transferred to 0.4 ml of water and mixed with an ethyl acetate solution containing anthrone reagent (2% w/v). Then, 1 ml of concentrated sulfuric acid was added to the mixture for color development. Samples were read at a wavelength of 620 nm, and glucose was used as a standard to estimate carbohydrate levels in the samples. Finally, dried EPS samples were sent to the Complex Carbohydrate Research Center (Athens, Ga., USA) for determination of monosaccharide composition, linkage, and NMR analysis.
The EPS hydrolytic activities of PssZ and PssZ E72Q were assessed by the ability of these proteins: (i) to prevent aggregation of the growing ΔpdeB/C/D strain in HTM/G medium, (ii) to disperse nongrowing ΔpdeB/C/D aggregates; and (iii) to release soluble carbohydrates from the purified insoluble EPS fibers. (i) Different concentrations (0.13 and 1.3 μg ml^−1) of the purified PssZ and PssZ E72Q proteins were added at the beginning of strain incubation. (ii) Aggregates were washed twice and resuspended in HTM salts-MOPS medium. Proteins were added to 1 ml of aggregate suspension (32 μg ml^−1, final concentration), and samples were incubated at 30° C. with gentle shaking. […]

[4] = Stability of PssZ hydrolytic activity on incubation; format: physicochemical; conditions: 3 day incubation at 30° C.
Text: In addition to biosynthesis proteins, the ManNAc-Gal EPS-specific glycosylhydrolase was identified and characterized. PssZ belongs to the GH8 family, whose members cleave β1-4 linkages through an inverting mechanism wherein carboxylate containing amino acid residues (i.e., Glu and Asp) perform the hydrolysis of glycosidic bonds. A conserved Glu residue present in the presumed catalytic site of PssZ was identified to be important for hydrolytic activity of PssZ (FIG. 17). The PssZ E72Q mutation largely, but not completely, abolished hydrolytic activity. […] A similar observation was reported for BcsZ, i.e., no hydrolytic activity was detected on carboxymethylcellulose in solution, whereas activity was shown on an agar plate containing carboxymethylcellulose. […] Given its relative stability, PssZ can be used for dispersing listerial EPS aggregates in food storage or processing plants, which would make listeria more susceptible to disinfectants. According to the results observed, listerial EPS-embedded aggregates are several orders of magnitude more tolerant to commonly used disinfectants than planktonic cells.

Molecule	survival of EPS producing ΔpdeB/C/D mutant relative to wild type (L. monocytogenes)	killing of wild-type strain EGD-e (L. monocytogenes)	killing of wild-type strain EGD-e (L. monocytogenes; listed as SH)	killing / survivors after disinfectant treatment [1]	inhibition of cell aggregation (ΔpdeB/C/D strain; 0.13 μg ml^−1 final concentration)	inhibition of cell aggregation (ΔpdeB/C/D strain; 1.3 μg ml^−1 final concentration)	dispersal of preformed cell aggregates ([2]; 32 μg ml^−1 final concentration, 6 h, 30° C., HTM salts without carbon source)	presence of reducing sugars in supernatants after treatment of cell aggregates ([2]; supernatants after treatment of cell aggregates)	hydrolytic activity on purified insoluble EPS (anthrone assay) [3]	hydrolytic activity retained after incubation [4]
OCl [sodium hypochlorite]	> 10^6 fold	highly effective in killing the wild-type strain	lack of survivors	highly effective in killing						
PssZ: L. monocytogenes ManNAc-Gal EPS-specific glycosylhydrolase; SEQ ID NO: 1, purified fragment SEQ ID NO: 2 (protein, His6 tag; Listeria monocytogenes) RPESKKTVSAPKETTPTSTSVQTYVKENYTAKNGLIMDYKNTEEPHYLAESIGLYMEYLVEVNDSKTFQKQVNHLEKYFIAEDNFIKWEATDSTTTNAIVDDFRITEALYQASEKFSFPSYKKMADKFLTNTKKYSAEQGVPVDFYDFVHKKKADTLHLSYLNIQAMQQINYRDKAYLPIQTINADPFFTEVFQNGQFKFADQKEVNMIDQMLIAIAYYDENGDIEPNFDNFLQTELASKGKIYARYQRETKKPSSENESTAVYAFLTQYFNKTNQAKNGKITKELLEKMDTSNPETTHFFDYINKEITLKK					inhibited aggregation partially	inhibited it completely	dispersed cell aggregates almost completely	able to be detected	did not detect any PssZ activity	retains partial hydrolytic activity
